In publication PMC3755989, “Identification of Amino Acid Residues of ERH Required for Its Recruitment to Nuclear Speckles and Replication Foci in HeLa Cells” (PLoS ONE, 2013):

Target: T1, FLAG-tagged wild-type human ERH (enhancer of rudimentary homolog) (human, UniProt P84090 1-104)
T1 construct: wild-type human ERH, expressed from pQE30/ERH-FLAG (formerly pQE30/ER-FLAG); also called ERH-FLAG; wild-type ERH
Assay: pull-down; GST-PDIP46/SKAR[L7]- or GST-Ciz1[B]-coated Glutathione-Agarose beads incubated with equal amounts of purified FLAG-tagged ERH forms; binding buffer 20 mM HEPES pH 7.4, 50 mM NaCl, 75 mM KCl, 1 mM DTT, 1 mM EDTA, 10% glycerol, 0.05% Triton X-100; western blotting with anti-FLAG antibody
Conditions: both partners purified

- binding result: binds
B1: GST-tagged fragment L7 of human PDIP46/SKAR (domain or fragment)
chain: NKEEPPKELPAAEPVLSPLEGTKMTVNNLHPRVTEEDIVELFCVCGALKRARLVHPGVAEVVFVKKDDAITAYKKYNNRCLDGQPMKCNLHMNGNVITSDQPILLRLSDSPSMKKESELPRRVNSASSSNPPAEVDPDTILKALFKSSGASVTTQPTEFKIKL
notes: fragment L7 of human PDIP46/SKAR comprising residues 259-421, expressed from pGEX-4T-1/PDIP46/SKAR[L7]; also called GST-PDIP46/SKAR[L7]; PDIP46/SKAR[L7]; source: E. coli XL1 Blue MRF', batch purified on Glutathione-Agarose beads
